The values that follow come from paper PMC11986026.

Experiment in all cases: cryo-EM structure; purified Wzc at ~2 mg/ml in LMNG, incubated with 1 mM ADP and 10 mM MgCl2 at 4 °C for 1 h; maps refined without symmetry (C1) or with C8 symmetry; octamer of one protein
Assay [1] has as its target Wzc^K540M3YE (K540M, Y718E, Y717E and Y715E) from E. coli serotype K30 (E. coli K30) (UniProt P76387).
Assay [2] concerns the target Wzc^K540M2YE (K540M, Y718E, Y717E) from E. coli serotype K30 (E. coli K30) (UniProt P76387).
Assay [3] concerns the target Wzc^K540M3YE_N711Y (K540M, Y718E, Y717E, Y715E and N711Y) from E. coli serotype K30 (E. coli K30) (UniProt P76387).

Broadly, the stoichiometry N is the number of molecules, sites or subunits per partner or assembly. In assay [1], “Wzc^K540M3YE (K540M, Y718E, Y717E and Y715E) from E. coli serotype K30 (from UniProt P76387 1-720) (enzyme)” returned a stoichiometry N of 8.

Turning to “Wzc^K540M2YE (K540M, Y718E, Y717E) from E. coli serotype K30 (from UniProt P76387 1-720) (enzyme)”, in assay [2], the stoichiometry N is 8.

In turn, “Wzc^K540M3YE_N711Y (K540M, Y718E, Y717E, Y715E and N711Y) from E. coli serotype K30 (from UniProt P76387 1-720) (enzyme)” showed a stoichiometry N in assay [3] of 8.
